Holding throughout (assay): pull-down
In assay [1] the target is GST-NR1-1a (GST fused to the cytoplasmic tail of NR1-1a) (UniProt P35439).
In assay [2] the target is PKA phosphorylated GST-NR1-1a.
In assay [3] the target is PKC-phosphorylated GST-NR1-1a.

Several values for one entry are separate records, joined by “and”; a condition that tells them apart may be missing. Identical values can stand only once.

With “importin α (endogenous, rat brain) (from UniProt P83953 1-538) (natural protein)”, the importin α pulled down (immunoblot signal, a.u.) was 0.94 a.u. and 1.43 a.u in assay [1]; 1.33 a.u in assay [2]; 0.378 a.u in assay [3].

Source of the values: paper PMC2819930.
